Assays:
glucagon fibrils [1] = target: T1, glucagon fibrils (Homo sapiens, UniProt P01275); assay: Fibril incubation with plasma, quantitative MS/MS of bound proteins; type: binding; settings: 50:1 w/w plasma protein:fibril
T1 construct: fibrils of the peptide hormone glucagon
Method: (§1) Plasma and CSF solutions were centrifuged (40,000 g, 20 min) to remove any aggregates. The protein concentration was determined using 280 nm absorbance assuming 1 Abs = 1 mg/mL. […] Control samples (without fibril material) were prepared similarly. All samples were incubated at room temperature for one hour under gentle agitation. Fibrils and fibril-bound proteins were pelleted by centrifugation at 17,000 g for 30 minutes. The supernatant (175 μL) was removed and the aggregate was re-suspended in 175 μL PBS and pelleted again before further preparation for gel analysis and spin-filter assisted digest for quantitative MS/MS.
(§2) The fibril-protein pellets were transferred to spin-filters (0.22 μm), washed twice in PBS (100 μL) and once in 1 M NaCl (100 μL). The fibrils and fibril-bound proteins were dissolved by one-hour incubation in 100 μL 6 M guanidinium chloride followed by elution from the spin-filter. The eluted proteins were loaded onto a 3 kDa MWCO filter unit for filter-assisted unfolding, reduction, alkylation, and trypsin digestion. In brief, samples were washed twice in 8 M urea, once in 8 M urea with 50 mM DTT, once in 8 M urea with 50 mM iodoaceteamide, and twice in 8 M Urea. The filter units were dried by centrifugation (14,000 g in 30 minutes) after every addition. Trypsin digestion was carried out with 0.25 μg sequencing grade trypsin from Sigma Aldrich in 50 mM ammonium bicarbonate overnight at 37 °C. The tryptic peptides were collected by centrifugation, acidified with TFA (0.1%) and micro-purified using POROS R2 column material (Applied Biosystems) packed in P200 pipette tips (Sarstedt).
(§3) LC-MS/MS analyses were performed on an EASY-nLC II system (Thermo Fisher Scientific) connected to a TripleTOF 5600+ mass spectrometer (Sciex) equipped with a NanoSpray III source (Sciex) and operated under Analyst TF 1.6.0 control.
(§4) The micro-purified tryptic peptides were dissolved in 0.1% formic acid, injected and trapped on an in-house packed trap column (2 cm × 100 μm I.D) with RP ReproSil-Pur C18-AQ 3 μm resin (Dr. Maisch GmbH). Peptides were eluted from the trap column and separated on a 15 cm analytical column (75 μm i.d.) packed in-house in a pulled emitter with RP ReproSil-Pur C18-AQ 3 μm resin (Dr. Maisch GmbH). Elution from the analytical column was performed with a linear gradient from 5% to 35% phase B (90% acetonitrile with 0.1% formic acid) over 20 min for protein identification and 50 min for quantitative analysis, respectively.
(§5) All samples were analysed three times, yielding nine MS/MS experiments for each fibril for both plasma and CSF. For the area-based extracted ion chromatogram (XIC) quantification, the acquisition method was set up as an information-dependent acquisition (IDA) experiment collecting up to 25 MS/MS spectra in each 1.6 sec cycle using an exclusion window of 6 sec.
(§6) XIC quantification was based on the average ion intensity of the three most abundant peptides for each protein. Only proteins quantified in at least four out of nine MS/MS experiments per fibril were included in the quantification. The total ion scores were visualized after grouping the proteins according to function (Figure S11).
(§7) For each MS/MS experiment, the ion intensities of the individual proteins were normalized to the total ion intensity of that MS/MS experiment to achieve a relative protein composition. The contribution of each protein was averaged over all nine MS/MS experiments (Tables 1 and 2).

glucagon fibrils [2] = target: T1, glucagon fibrils; assay: Fibril incubation with CSF, quantitative MS/MS of bound proteins; type: binding; settings: 4:1 w/w CSF protein:fibril
Method: as §1, §2, §3, §4, §5, §6, §7

Ab1 fibrils [3] = tested on: T2, Ab1 fibrils; assay: as above; type: binding, human; settings: 4:1 w/w CSF protein:fibril
T2 construct: Synthetic amyloid β peptide 1–40 was purchased from Caslo Aps (Lyngby, Denmark); purchased Caslo Aps (Lyngby, Denmark); host or cells: synthetic peptide
Method: as §1, §2, §3, §4, §5, §6, §7

Ab2 fibrils [4] = tested on: T3, Ab2 fibrils; assay: Fibril incubation with plasma, quantitative MS/MS of bound proteins; type: binding, human; settings: 50:1 w/w plasma protein:fibril
T3 construct: Two structurally distinct fibrils of the Aβ(1–40) peptide associated with AD
Method: as §1, §2, §3, §4, §5, §6, §7

Ab2 fibrils [5] = tested on: T3, Ab2 fibrils; assay: Fibril incubation with CSF, quantitative MS/MS of bound proteins; type: binding, human; parameters: key to Identification status of CSF protein bound: Ab2: *: Identified, but not quantified; —: Not identified in any of the samples; settings: for Identification status of CSF protein bound: Ab2: symbol cells; for Relative composition of CSF proteins bound: Ab2: 4:1 w/w CSF protein:fibril
Method: as §1, §2, §3, §4, §5, §6, §7

αSN fibrils [6] = target: T4, αSN fibrils (Homo sapiens, UniProt P37840); assay: as above; type: binding; parameters: key to Identification status of CSF protein bound: αSN: *: Identified, but not quantified; —: Not identified in any of the samples; settings: for Identification status of CSF protein bound: αSN: symbol cells; for Relative composition of CSF proteins bound: αSN: 4:1 w/w CSF protein:fibril
Method: as §1, §2, §3, §4, §5, §6, §7

FAS4-AD aggregates [7] = tested on: T5, FAS4-AD aggregates; assay: as above; type: binding, human; parameters: key to Identification status of CSF protein bound: FAS4-AD: *: Identified, but not quantified; —: Not identified in any of the samples; settings: for Identification status of CSF protein bound: FAS4-AD: symbol cells
T5 construct: aggregates of a mutated version of the FAS1-4 domain of TGFBIp
Method: as §1, §2, §3, §4, §5, §6, §7

C-36 fibrils [8] = target: T6, C-36 fibrils (Homo sapiens, UniProt P01009); assay: Fibril incubation with plasma, quantitative MS/MS of bound proteins; type: binding; parameters: key to Identification status of plasma protein bound: C-36: *: Identified, but not quantified; —: Not identified in any of the samples; settings: for Relative composition of plasma proteins bound: C-36: 50:1 w/w plasma protein:fibril
T6 construct: the 36 residue C-terminal fragment of α1-antitrypsin (C-36)
T6 sequence (P01009 383-418 limits assumed): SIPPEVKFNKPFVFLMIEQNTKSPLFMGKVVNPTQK
Method: as §1, §2, §3, §4, §5, §6, §7

FAS4-AD aggregates [9] = tested on: T5, FAS4-AD aggregates; assay: as above; type: binding, human; parameters: key to Identification status of plasma protein bound: FAS4-AD: *: Identified, but not quantified; —: Not identified in any of the samples; settings: for Relative composition of plasma proteins bound: FAS4-AD: 50:1 w/w plasma protein:fibril
Method: as §1, §2, §3, §4, §5, §6, §7

Ab1 fibrils [10] = tested on: T2, Ab1 fibrils; assay: as above; type: binding, human; settings: 50:1 w/w plasma protein:fibril
Method: Plasma and CSF solutions were centrifuged (40,000 g, 20 min) to remove any aggregates. The protein concentration was determined using 280 nm absorbance assuming 1 Abs = 1 mg/mL. […] Control samples (without fibril material) were prepared similarly. All samples were incubated at room temperature for one hour under gentle agitation. Fibrils and fibril-bound proteins were pelleted by centrifugation at 17,000 g for 30 minutes. The supernatant (175 μL) was removed and the aggregate was re-suspended in 175 μL PBS and pelleted again before further preparation for gel analysis and spin-filter assisted digest for quantitative MS/MS.
as §2, §3, §4, §5, §6, §7

αSN fibrils [11] = target: T4, αSN fibrils; assay: as above; type: binding; parameters: key to Identification status of plasma protein bound: αSN: *: Identified, but not quantified; —: Not identified in any of the samples; settings: for Relative composition of plasma proteins bound: αSN: 50:1 w/w plasma protein:fibril; for Identification status of plasma protein bound: αSN: symbol cells
Method: as §1, §2, §3, §4, §5, §6, §7

C-36 fibrils [12] = target: T6, C-36 fibrils; assay: Fibril incubation with CSF, quantitative MS/MS of bound proteins; type: binding; parameters: key to Identification status of CSF protein bound: C-36: *: Identified, but not quantified; —: Not identified in any of the samples; settings: for Relative composition of CSF proteins bound: C-36: 4:1 w/w CSF protein:fibril; for Identification status of CSF protein bound: C-36: symbol cells
Method: as §1, §2, §3, §4, §5, §6, §7

T1 sequence (P01275 53-81 limits assumed): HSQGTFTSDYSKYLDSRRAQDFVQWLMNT

Substance | Relative composition of plasma proteins bound: Glucagon (glucagon fibrils [1]) | Relative composition of CSF proteins bound: Glucagon (glucagon fibrils [2]) | Relative composition of CSF proteins bound: Ab1 (Ab1 fibrils [3]) | Relative composition of plasma proteins bound: Ab2 (Ab2 fibrils [4]) | Identification status of CSF protein bound: Ab2 (Ab2 fibrils [5]) | Identification status of CSF protein bound: αSN (αSN fibrils [6]) | Identification status of CSF protein bound: FAS4-AD (FAS4-AD aggregates [7]) | Relative composition of plasma proteins bound: C-36 (C-36 fibrils [8]) | Relative composition of plasma proteins bound: FAS4-AD (FAS4-AD aggregates [9]) | Relative composition of plasma proteins bound: Ab1 (Ab1 fibrils [10]) | Relative composition of plasma proteins bound: αSN (αSN fibrils [11]) | Relative composition of CSF proteins bound: C-36 (C-36 fibrils [12]) | Relative composition of CSF proteins bound: Ab2 (Ab2 fibrils [5]) | Identification status of plasma protein bound: FAS4-AD (FAS4-AD aggregates [9]; symbol cells) | Identification status of plasma protein bound: αSN (αSN fibrils [11]) | Identification status of CSF protein bound: C-36 (C-36 fibrils [12]) | Relative composition of CSF proteins bound: αSN (αSN fibrils [6]) | Relative composition of CSF proteins bound: FAS4-AD (FAS4-AD aggregates [7]; 4:1 w/w CSF protein:fibril) | Identification status of plasma protein bound: C-36 (C-36 fibrils [8]; symbol cells)
Apolipoprotein A-II: plasma/CSF protein bound to fibrils | 6.2 ± 0.6 % of total protein | 0.6 ± 0.2 % of total protein | 1.0 ± 0.3 % of total protein | 1.2 ± 0.2 % of total protein | * | — | — | 1.9 ± 0.5 % of total protein | 1.8 ± 0.2 % of total protein | 1.1 ± 0.2 % of total protein | 0.9 ± 0.3 % of total protein | 0.9 ± 0.1 % of total protein |  |  |  |  |  |  | 
Complement C3: plasma/CSF protein bound to fibrils | 2.3 ± 0.2 % of total protein | 0.8 ± 0.2 % of total protein | 0.3 ± 0.1 % of total protein | 0.6 ± 0.1 % of total protein |  | — | — | 0.2 ± 0.0 % of total protein |  | 0.4 ± 0.0 % of total protein |  |  | 0.3 ± 0.1 % of total protein | * | * | * |  |  | 
Apolipoprotein D: plasma/CSF protein bound to fibrils | 0.3 ± 0.1 % of total protein | 1.8 ± 0.3 % of total protein | 8.7 ± 0.4 % of total protein | 0.3 ± 0.0 % of total protein |  |  |  | 0.9 ± 0.1 % of total protein | 1.1 ± 0.1 % of total protein | 0.1 ± 0.0 % of total protein |  | 9.0 ± 2.3 % of total protein | 11.2 ± 0.6 % of total protein |  | * |  | 3.4 ± 0.5 % of total protein | 5.7 ± 0.4 % of total protein | 
Ig γ-1 chain C region: plasma/CSF protein bound to fibrils | 1.2 ± 0.2 % of total protein | 1.4 ± 0.5 % of total protein | 2.5 ± 0.1 % of total protein | 1.2 ± 0.1 % of total protein |  |  | * | 1.9 ± 0.2 % of total protein | 9.5 ± 2.6 % of total protein | 1.1 ± 0.1 % of total protein | 1.9 ± 0.9 % of total protein | 1.4 ± 0.2 % of total protein | 3.1 ± 0.3 % of total protein |  |  |  | 4.2 ± 0.4 % of total protein |  | 
α1-antitrypsin: plasma/CSF protein bound to fibrils | 0.6 ± 0.0 % of total protein | 1.0 ± 0.2 % of total protein | 0.5 ± 0.2 % of total protein | 0.4±0.0 % of total protein | * | * | * |  | 1.4 ± 0.5 % of total protein | 0.4 ± 0.0 % of total protein |  |  |  |  | * | * |  |  | *

From article PMC6405930, “Conservation of the Amyloid Interactome Across Diverse Fibrillar Structures” (Scientific Reports, 2019)
